Patent US20050064539A1

Target: mannose-6-phosphate receptor (human (cultured skin fibroblasts from a Fabry disease patient)) (UniProt O00264)
Assay: cell-based or functional assay

Sequence of UniProt O00264 (O00264 whole entry): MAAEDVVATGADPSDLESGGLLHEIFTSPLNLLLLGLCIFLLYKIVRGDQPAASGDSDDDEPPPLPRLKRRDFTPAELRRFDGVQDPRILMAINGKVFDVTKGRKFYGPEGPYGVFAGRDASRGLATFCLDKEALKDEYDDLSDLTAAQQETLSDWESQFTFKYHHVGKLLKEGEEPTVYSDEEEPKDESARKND

- α-galactosidase activity in the cell extract of Fabry patient-derived fibroblasts 18 hours after adding enzyme at 1 µg/ml (uptake experiment): 3 fold
Substance: mannosidase-treated α-galactosidase (human α-galactosidase produced by S. cerevisiae strain HPY21G, treated with Cellulomonas SO-5-derived α-mannosidase) (from UniProt P06280 32-429) (enzyme)
